# Assay results reported in publication PMC5404824, “Engineering Nucleotide Specificity of Succinyl-CoA Synthetase in Blastocystis: The Emerging Role of Gatekeeper Residues” (Biochemistry, 2016).
# B1: Blastocystis SCS (succinyl-CoA synthetase, SCSα + SCSβ) (Blastocystis sp. ATCC 50177/Nand II) (protein)
# chain: LNIHEWQSKQLIQKYGGRAQSGEVAFSPERSRDIAKKLWNQFPGCKFVVKAQVLAGGRGKGHWEHGMQGGVKLAKTPEEVYEIANEMIGHKLITKQTGAKGINCNKVMVCGAVKILKEFYLSILLDRAMGCPVIIATSQGGMGIEEVAQKCPECLFKVPISVKNGPTNEQLVKLAKDLGLEGDLVQDCVDNVKALYQVFDKCDSTMVEINPLGVIETPTDEKVICCLDAKIAFDKDAAFRQKEIFALRDKSREDPRDVRASLADLNYVGLDGDIGCMVNGAGLAMATMDTINYFGGSAANFLDVGGNAKKEQITEALRILNSDKHVKSILINIFGGIMRCDVVAQGIMDAVREMKLDLPLVVRLEGTNVAKGKEILKSSGLNIIPANDLGDAAKKAVASLKH
# Substrate: Nc1ncnc2c1ncn2[C@@H]1O[C@H](COP(=O)(O)OP(=O)(O)OP(=O)(O)O)[C@@H](O)[C@H]1O
# Assay: purified protein
# Settings: 129 μM CoA, 10 mM succinate, 50 mM KCl, 10 mM MgCl2, 50 mM Tris-HCl pH 7.4, 30 nM enzyme
protein,measurement,value
B1,Km,145 ± 47 µM
same,kcat,0.0139 s⁻¹
same,kcat/Km,96 M⁻¹ s⁻¹
